First the molecules themselves.
B1: phosphorylated Smad2 (pSmad2) (other, UniProt Q62432 2-467, looked up)
chain: SSILPFTPPVVKRLLGWKKSAGGSGGAGGGEQNGQEEKWCEKAVKSLVKKLKKTGRLDELEKAITTQNCNTKCVTIPSTCSEIWGLSTANTVDQWDTTGLYSFSEQTRSLDGRLQVSHRKGLPHVIYCRLWRWPDLHSHHELKAIENCEYAFNLKKDEVCVNPYHYQRVETPVLPPVLVPRHTEILTELPPLDDYTHSIPENTNFPAGIEPQSNYIPETPPPGYISEDGETSDQQLNQSMDTGSPAELSPTTLSPVNHSLDLQPVTYSEPAFWCSIAYYELNQRVGETFHASQPSLTVDGFTDPSNSERFCLGLLSNVNRNATVEMTRRHIGRGVRLYYIGGEVFAECLSDSAIFVQSPNCNQRYGWHPATVCKIPPGCNLKIFNNQEFAALLAQSVNQGFEAVYQLTRMCTIRMSFVKGWGAEYRRQTVTSTPCWIELHLNGPLQWLDKVLTQMGSPSVRCSSMS
modifications: phosphorylated (sites not given)
notes: Endogenous protein from AKR-2B cell lysate, detected by Western blot with a phospho-Smad2 specific antibody

Test [1] has as its target T1, GST full length (FL) SNX9 (UniProt Q9Y5X1 1-595).
T1 construct: GST fusion used in pull-down; also called GST-FL SNX9; not shown: glutathione S-transferase (GST) tag
Description: GST pull-down from AKR-2B lysate, Western blot.

Test [2] has as its target B1. Description: GST pull-down from AKR-2B lysate, Western blot.
Description: Lysates from AKR-2B cells untreated (−) or stimulated (+) for 45 minutes with 5 ng/mL TGFβ were incubated with GST beads or the indicated fusion polypeptides immobilized on GST beads. Bound polypeptides were eluted and assessed by Western analysis for pSmad3 or pSmad2. Cell lysate reflects signal obtained from 10 μg total protein. (B) AKR-2B cells were transduced for 90 minutes with the indicated concentrations of the TAT-SNX9(SH3) fusion polypeptides. Following washing and 1 hour TGFβ (5 ng/mL) treatment, nuclear fractions were isolated, and Western blotted for pSmad2, pSmad3, or histone deacetylase 1 (HDAC) (Left). Quantitation of nuclear pSmads was performed with Image J software and represents the mean+/−sd of two experiments (Right). […] Immunofluorescence for Smad3 or the HA-tagged TAT-SNX9(SH3) fusion polypeptide was performed, and nuclei were stained with DAPI (Left panels). Quantitation of nuclear Smad3 from 30 cells in each of two experiments (Right).
To assess SNX9 binding to GST or His constructs, cells were incubated in the presence or absence of 5 ng/mL TGFβ for 45 minutes. Following RIPA buffer lysis, 500 μg of protein was precleared with GST Resin or TALON Metal Affinity Resin for 2 hours at 4° C. Precleared cell lysates were then treated with 5 μg purified GST- or His-fusion proteins and incubated overnight at 4° C. with gentle shaking. Following addition of GST or TALON Metal Affinity Resin and 2 hours of incubation, the pelleted (3,000×g; 10 minutes) resin was washed several times with PBS, and the remaining proteins were eluted using 1× Laemmli sample buffer. Western blotting was performed as described above.
Test [3] has as its target T2, phosphorylated Smad3 (pSmad3) (UniProt Q8BUN5 2-425, phosphorylated (sites not given)).
T2 construct: Endogenous protein from AKR-2B cell lysate, detected by Western blot with a phospho-Smad3 specific antibody; also called phosphorylated (p) Smad3
Description: GST pull-down from AKR-2B lysate, Western blot. For orientation: Immunoblotting shows a protein as a band on a membrane.

In test [4] the target is T2, phosphorylated Smad3 (pSmad3). Description: His pull-down from AKR-2B lysate, Western blot.

We go through six molecules from patent US20170253873A1 (MAYO FOUNDATION FOR MEDICAL EDUCATION AND RESEARCH, published 2017).

T2 sequence (Q8BUN5 2-425 limits assumed): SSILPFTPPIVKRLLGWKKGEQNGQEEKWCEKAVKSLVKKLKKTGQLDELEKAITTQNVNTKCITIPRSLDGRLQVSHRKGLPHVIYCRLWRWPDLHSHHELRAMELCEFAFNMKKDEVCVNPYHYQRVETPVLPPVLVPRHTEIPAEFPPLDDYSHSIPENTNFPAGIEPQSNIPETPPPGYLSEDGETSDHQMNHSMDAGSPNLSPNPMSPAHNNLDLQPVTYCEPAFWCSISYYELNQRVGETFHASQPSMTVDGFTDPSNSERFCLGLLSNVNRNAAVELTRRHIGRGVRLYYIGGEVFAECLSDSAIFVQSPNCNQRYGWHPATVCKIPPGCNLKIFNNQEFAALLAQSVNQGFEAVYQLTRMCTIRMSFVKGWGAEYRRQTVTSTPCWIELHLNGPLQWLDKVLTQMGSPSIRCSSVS

In the case of B1, the binding result in test [1] was “no binding”.

B2: GST fusion of the carboxyl half of SNX9 (Phox and BAR domains) (other, UniProt Q9Y5X1 204-595, looked up)
chain: PLNKFPGFAKPGTEQYLLAKQLAKPKEKIPIIVGDYGPMWVYPTSTFDCVVADPRKGSKMYGLKSYIEYQLTPTNTNRSVNHRYKHFDWLYERLLVKFGSAIPIPSLPDKQVTGRFEEEFIKMRMERLQAWMTRMCRHPVISESEVFQQFLNFRDEKEWKTGKRKAERDELAGVMIFSTMEPEAPDLDLVEIEQKCEAVGKFTKAMDDGVKELLTVGQEHWKRCTGPLPKEYQKIGKALQSLATVFSSSGYQGETDLNDAITEAGKTYEEIASLVAEQPKKDLHFLMECNHEYKGFLGCFPDIIGTHKGAIEKVKESDKLVATSKITLQDKQNMVKRVSIMSYALQAEMNHFHSNRIYDYNSVIRLYLEQQVQFYETIAEKLRQALSRFPVM
notes: domain: Phox and BAR domains; not shown: glutathione S-transferase (GST) tag
On to B2, for which the binding result in test [2] and in test [3] was “no binding” in each case.

B3: GST fusion of the amino half of SNX9 (SH3 and low complexity (LC) domains) (other, UniProt Q9Y5X1 1-203, looked up)
chain: MATKARVMYDFAAEPGNNELTVNEGEIITITNPDVGGGWLEGRNIKGERGLVPTDYVEILPSDGKDQFSCGNSVADQAFLDSLSASTAQASSSAASNNHQVGSGNDPWSAWSASKSGNWESSEGWGAQPEGAGAQRNTNTPNNWDTAFGHPQAYQGPATGDDDDWDEDWDGPKSSSYFKDSESADAGGAQRGNSRASSSSMKI
notes: domain: SH3 and low complexity (LC) domains; also called amino terminal peptide; not shown: glutathione S-transferase (GST) tag
On to B3, for which the binding result in test [2] is reported as “no binding”.

B4: TAT-SH3-2M (TAT-SH3-2 with G to V mutations at amino acids 36-38) (designed binder)
chain: TVNEGEIITITNPDVVVVWLEGRNIKGERGL
notes: range 21-51; Mutant of TAT-SH3-2; also called Control peptide; not shown: His tag, cell penetrating TAT polypeptide from HIV and HA tag
For B4, in test [4], the binding result is “no binding”.

B5: GST fusion of the first 74 amino acids of SNX9 encoding the SH3 domain (other, UniProt Q9Y5X1 1-74, looked up)
chain: MATKARVMYDFAAEPGNNELTVNEGEIITITNPDVGGGWLEGRNIKGERGLVPTDYVEILPSDGKDQFSCGNSV
notes: range 1-74; also called SH3 domain of sorting nexin 9; SNX9 SH3 domain; not shown: glutathione S-transferase (GST) tag
Take B5: in test [2], the binding result is on record as “no binding”.

B6: GST fusion of the LC (low complexity) domain of SNX9 (other, UniProt Q9Y5X1 63-203, looked up)
chain: DGKDQFSCGNSVADQAFLDSLSASTAQASSSAASNNHQVGSGNDPWSAWSASKSGNWESSEGWGAQPEGAGAQRNTNTPNNWDTAFGHPQAYQGPATGDDDDWDEDWDGPKSSSYFKDSESADAGGAQRGNSRASSSSMKI
notes: domain: LC domain; It overlaps the 1-74 fragment; also called LC domain; not shown: glutathione S-transferase (GST) tag
Consider B6, for which, in test [2], the binding result was “no binding”.
